Measured values as given in article PMC4216188.

Target: I53A FLAG-Pen-2 (human) (UniProt Q9NZ42)
Assay: co-IP

UniProt Q9NZ42, sequence (Q9NZ42 whole entry I53A): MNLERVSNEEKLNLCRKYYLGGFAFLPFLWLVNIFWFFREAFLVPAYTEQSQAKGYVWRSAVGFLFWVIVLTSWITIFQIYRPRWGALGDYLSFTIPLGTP

## presenilin 1 C-terminal fragment (PS1-CTF) (domain or fragment)
  PS1-CTF associated with immunoprecipitated Pen-2, percent of wt: < 40 % of wt
